Source: patent publication US9217011B2, “Non-natural proteinaceous scaffold made of three non-covalently associated peptides” (Complix NV, priority 2007, dated 2015)
Where two headings read alike, the source gives them in different places.

Type: physicochemical
Settings: for alpha-helical secondary structure from CD spectrum: 292 microM, pH 7.2; for reversibility of thermal unfolding (up and down scan): CD signal as a function of temperature, about 1 degree Celsius per minute
Method: The said synthesized peptide was dissolved at a concentration of 292 microM in 20 mM phosphate buffer (PBS), 150 mM NaCl, pH 7.2. The CD spectra were measured between […], at 5 and 90 degrees Celsius (FIG. 3).
To analyse whether the temperature-induced transition between helical and nonhelical states was reversible, a forward (up) and backward (down) thermal scan was performed on the same sample, by recording the CD signal at […] as a function of temperature at a scanning rate of about 1 degree Celsius per minute (FIG. 4).
It was further analyzed whether the thermal unfolding curve of FIG. 4 conformed to the thermodynamic equations describing the equilibrium folding/unfolding reaction between three molecules free (monomeric) peptide and one entity of folded (trimeric) complex. This reaction is generally written as 3 peptide <=> peptide3
[formula] [formula] [formula] and • T≡the temperature, in degrees Kelvin, of the sample • θ(T)≡the CD-signal [theta]222 nm, in deg cm^2 dmol^−1, as a function of T • θM(T)≡the CD-signal for 100% free (monomeric) peptide as a function of T • θT(T)≡the CD-signal for 100% associated (trimeric) peptide as a function of T • Tt≡the transition temperature, where 50% of the total peptide concentration is associated • ΔHt≡the enthalpy difference, in kJ per mole peptide, between mono- and trimeric states • ΔCp≡the heat capacity difference, in J mol^−1 K^−1, between mono- and trimeric states • R≡the ideal (universal) gas constant≡8.31 J mol^−1 K^−1
FIG. 5 represents fitting of a theoretic equation for trimeric association to experimental data. The experimental data are taken from FIG. 4, curve labeled “UP”. The theoretic equations used are listed supra. The fitted parameters (fitting results) are listed at the right in FIG. 5. “Transit. T” corresponds to Tt, but is expressed here in degrees Celsius. The parameter “delta Cp” was kept constant at 3.0 kJ mol^−1 K^−1. The parameters “thetaM(T)” and “thetaT(T)” were treated as linear functions of T, resulting in the white straight lines described by the respective offsets and slopes indicated at the right in the figure. “RMS Resid.” refers to the root-mean-square of the differences between experimental and theoretic data points. The fitted (theoretic) curve itself is plotted in white on the figure and coincides over the entire temperature range with the experimental data points shown in black.

Row | Substance | thermal stability (in words) | alpha-helical secondary structure from CD spectrum (5 degrees Celsius) | alpha-helical secondary structure from CD spectrum (90 degrees Celsius) | reversibility of thermal unfolding (up and down scan) | temperature up to which the peptide did not quantitatively unfold (thermal CD scan) | estimated transition temperature (thermal denaturation curve, same conditions as Example 3 (292 microM, 20 mM phosphate buffer, 150 mM NaCl, pH 7.2), transition incomplete)
1 | Ac-MSIEEIQKQQAAIQKQIAAIQKQIYRMTP-NH2 [Q2a] | moderately stable | high alpha-helical secondary structure content | greatly, but not completely, lost | up and down scans almost perfectly coincided | – | –
2 | Ac-MSIEEIQKQIAAIQKQIAAIQKQIYRMTP-NH2 [Q2aI] | extremely thermostable | – | – | full reversibility | ≥ 95 degrees Celsius | around 97 degrees Celsius
